One may read the IC50 as the concentration that inhibits the measured activity by half.

Numbered stars: 1 amine (or outer) side, 2 acyl side, 3 side chain; on linkers, the order of the positions; unused ones are H or OH. Ends that are not written are not given here. * marks the point of attachment. C20 diacid = O=C(O)CCCCCCCCCCCCCCCCCCC(=O)*; C18 diacid = O=C(O)CCCCCCCCCCCCCCCCC(=O)*; γGlu = O=C(O)[C@H](CCC(=O)[*:2])N[*:1]

Experimental findings from patent publication US20160272683A1 (Novo Nordisk, published 2016) are described below.

T1: human amylin receptor (human calcitonin receptor + human RAMP3) (human) (UniProt P30988)
T1 sequence (looked up) 1: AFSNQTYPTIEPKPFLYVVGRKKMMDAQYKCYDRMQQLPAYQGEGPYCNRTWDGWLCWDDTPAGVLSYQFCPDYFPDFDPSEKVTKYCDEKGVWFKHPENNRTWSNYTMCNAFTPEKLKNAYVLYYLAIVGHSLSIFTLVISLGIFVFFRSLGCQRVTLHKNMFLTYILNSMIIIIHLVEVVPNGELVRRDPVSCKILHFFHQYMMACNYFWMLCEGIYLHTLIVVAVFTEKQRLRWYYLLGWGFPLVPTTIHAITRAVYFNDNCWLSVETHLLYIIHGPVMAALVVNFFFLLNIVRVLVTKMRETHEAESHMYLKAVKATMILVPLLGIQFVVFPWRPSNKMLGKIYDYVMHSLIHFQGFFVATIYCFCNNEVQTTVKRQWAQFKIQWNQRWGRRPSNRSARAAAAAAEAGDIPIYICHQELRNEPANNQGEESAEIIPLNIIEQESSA
T1 sequence (looked up) 2: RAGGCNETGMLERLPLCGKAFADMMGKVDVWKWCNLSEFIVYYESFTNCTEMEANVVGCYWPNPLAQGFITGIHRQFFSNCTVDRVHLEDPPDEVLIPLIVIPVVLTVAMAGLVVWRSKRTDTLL

B1: [N-terminal(C20 diacid-gGlu), des1, 4G, 15T, 21E, 23Y, 30S, 31G, 32T, 33Y]mimylin (peptide)
peptide: {C20 diacid-γGlu}-ASGLSTAALGRLSTELHELETYPRTETGSGTY-NH2
SMILES: CC(C)C[C@H](NC(=O)CNC(=O)[C@H](CO)NC(=O)[C@H](C)NC(=O)CC[C@H](NC(=O)CCCCCCCCCCCCCCCCCCC(=O)O)C(=O)O)C(=O)N[C@@H](CO)C(=O)N[C@H](C(=O)N[C@@H](C)C(=O)N[C@@H](C)C(=O)N[C@@H](CC(C)C)C(=O)NCC(=O)N[C@@H](CCCNC(=N)N)C(=O)N[C@@H](CC(C)C)C(=O)N[C@@H](CO)C(=O)N[C@H](C(=O)N[C@@H](CCC(=O)O)C(=O)N[C@@H](CC(C)C)C(=O)N[C@@H](Cc1c[nH]cn1)C(=O)N[C@@H](CCC(=O)O)C(=O)N[C@@H](CC(C)C)C(=O)N[C@@H](CCC(=O)O)C(=O)N[C@H](C(=O)N[C@@H](Cc1ccc(O)cc1)C(=O)N1CCC[C@H]1C(=O)N[C@@H](CCCNC(=N)N)C(=O)N[C@H](C(=O)N[C@@H](CCC(=O)O)C(=O)N[C@H](C(=O)NCC(=O)N[C@@H](CO)C(=O)NCC(=O)N[C@H](C(=O)N[C@@H](Cc1ccc(O)cc1)C(N)=O)[C@@H](C)O)[C@@H](C)O)[C@@H](C)O)[C@@H](C)O)[C@@H](C)O)[C@@H](C)O
B2: [N-terminal(C20 diacid-gGlu), 2L, 4G, 8L, 9V, 15Q, 21Q, 23Y, 27G, 30S, 31G, 32T, 33Y]mimylin (peptide)
peptide: {C20 diacid-γGlu}-ELSGLSTLVLGRLSQELHELQTYPRTGTGSGTY-NH2
SMILES: CC(C)C[C@H](NC(=O)CNC(=O)[C@H](CO)NC(=O)[C@H](CC(C)C)NC(=O)[C@H](CCC(=O)O)NC(=O)CC[C@H](NC(=O)CCCCCCCCCCCCCCCCCCC(=O)O)C(=O)O)C(=O)N[C@@H](CO)C(=O)N[C@H](C(=O)N[C@@H](CC(C)C)C(=O)N[C@H](C(=O)N[C@@H](CC(C)C)C(=O)NCC(=O)N[C@@H](CCCNC(=N)N)C(=O)N[C@@H](CC(C)C)C(=O)N[C@@H](CO)C(=O)N[C@@H](CCC(N)=O)C(=O)N[C@@H](CCC(=O)O)C(=O)N[C@@H](CC(C)C)C(=O)N[C@@H](Cc1c[nH]cn1)C(=O)N[C@@H](CCC(=O)O)C(=O)N[C@@H](CC(C)C)C(=O)N[C@@H](CCC(N)=O)C(=O)N[C@H](C(=O)N[C@@H](Cc1ccc(O)cc1)C(=O)N1CCC[C@H]1C(=O)N[C@@H](CCCNC(=N)N)C(=O)N[C@H](C(=O)NCC(=O)N[C@H](C(=O)NCC(=O)N[C@@H](CO)C(=O)NCC(=O)N[C@H](C(=O)N[C@@H](Cc1ccc(O)cc1)C(N)=O)[C@@H](C)O)[C@@H](C)O)[C@@H](C)O)[C@@H](C)O)C(C)C)[C@@H](C)O
B3: [N-terminal(C20 diacid-gGlu), des1, 4G, 9V, 15Q, 21Q, 23Y, 30S, 31A, 32T, 33Y]mimylin (peptide)
peptide: {C20 diacid-γGlu}-ASGLSTAVLGRLSQELHELQTYPRTETGSATY-NH2
SMILES: CC(C)C[C@H](NC(=O)CNC(=O)[C@H](CO)NC(=O)[C@H](C)NC(=O)CC[C@H](NC(=O)CCCCCCCCCCCCCCCCCCC(=O)O)C(=O)O)C(=O)N[C@@H](CO)C(=O)N[C@H](C(=O)N[C@@H](C)C(=O)N[C@H](C(=O)N[C@@H](CC(C)C)C(=O)NCC(=O)N[C@@H](CCCNC(=N)N)C(=O)N[C@@H](CC(C)C)C(=O)N[C@@H](CO)C(=O)N[C@@H](CCC(N)=O)C(=O)N[C@@H](CCC(=O)O)C(=O)N[C@@H](CC(C)C)C(=O)N[C@@H](Cc1c[nH]cn1)C(=O)N[C@@H](CCC(=O)O)C(=O)N[C@@H](CC(C)C)C(=O)N[C@@H](CCC(N)=O)C(=O)N[C@H](C(=O)N[C@@H](Cc1ccc(O)cc1)C(=O)N1CCC[C@H]1C(=O)N[C@@H](CCCNC(=N)N)C(=O)N[C@H](C(=O)N[C@@H](CCC(=O)O)C(=O)N[C@H](C(=O)NCC(=O)N[C@@H](CO)C(=O)N[C@@H](C)C(=O)N[C@H](C(=O)N[C@@H](Cc1ccc(O)cc1)C(N)=O)[C@@H](C)O)[C@@H](C)O)[C@@H](C)O)[C@@H](C)O)C(C)C)[C@@H](C)O
B4: [N-terminal(C20 diacid-gGlu), des1, 2L, 4Q, 8L, 9V, 15Q, 16R, 19R, 21Q, 23Y, 27Q, 30S, 31Q, 32T, 33Y]mimylin (peptide)
peptide: {C20 diacid-γGlu}-LSQLSTLVLGRLSQRLHRLQTYPRTQTGSQTY-NH2
SMILES: CC(C)C[C@H](NC(=O)CC[C@H](NC(=O)CCCCCCCCCCCCCCCCCCC(=O)O)C(=O)O)C(=O)N[C@@H](CO)C(=O)N[C@@H](CCC(N)=O)C(=O)N[C@@H](CC(C)C)C(=O)N[C@@H](CO)C(=O)N[C@H](C(=O)N[C@@H](CC(C)C)C(=O)N[C@H](C(=O)N[C@@H](CC(C)C)C(=O)NCC(=O)N[C@@H](CCCNC(=N)N)C(=O)N[C@@H](CC(C)C)C(=O)N[C@@H](CO)C(=O)N[C@@H](CCC(N)=O)C(=O)N[C@@H](CCCNC(=N)N)C(=O)N[C@@H](CC(C)C)C(=O)N[C@@H](Cc1c[nH]cn1)C(=O)N[C@@H](CCCNC(=N)N)C(=O)N[C@@H](CC(C)C)C(=O)N[C@@H](CCC(N)=O)C(=O)N[C@H](C(=O)N[C@@H](Cc1ccc(O)cc1)C(=O)N1CCC[C@H]1C(=O)N[C@@H](CCCNC(=N)N)C(=O)N[C@H](C(=O)N[C@@H](CCC(N)=O)C(=O)N[C@H](C(=O)NCC(=O)N[C@@H](CO)C(=O)N[C@@H](CCC(N)=O)C(=O)N[C@H](C(=O)N[C@@H](Cc1ccc(O)cc1)C(N)=O)[C@@H](C)O)[C@@H](C)O)[C@@H](C)O)[C@@H](C)O)C(C)C)[C@@H](C)O
B5: [N-terminal(C20 diacid-gGlu), des1, 2L, 4G, 9V, 21S, 23Y, 30S, 31G, 32T, 33Y]mimylin (peptide)
peptide: {C20 diacid-γGlu}-LSGLSTAVLGRLSAELHELSTYPRTETGSGTY-NH2
SMILES: CC(C)C[C@H](NC(=O)CC[C@H](NC(=O)CCCCCCCCCCCCCCCCCCC(=O)O)C(=O)O)C(=O)N[C@@H](CO)C(=O)NCC(=O)N[C@@H](CC(C)C)C(=O)N[C@@H](CO)C(=O)N[C@H](C(=O)N[C@@H](C)C(=O)N[C@H](C(=O)N[C@@H](CC(C)C)C(=O)NCC(=O)N[C@@H](CCCNC(=N)N)C(=O)N[C@@H](CC(C)C)C(=O)N[C@@H](CO)C(=O)N[C@@H](C)C(=O)N[C@@H](CCC(=O)O)C(=O)N[C@@H](CC(C)C)C(=O)N[C@@H](Cc1c[nH]cn1)C(=O)N[C@@H](CCC(=O)O)C(=O)N[C@@H](CC(C)C)C(=O)N[C@@H](CO)C(=O)N[C@H](C(=O)N[C@@H](Cc1ccc(O)cc1)C(=O)N1CCC[C@H]1C(=O)N[C@@H](CCCNC(=N)N)C(=O)N[C@H](C(=O)N[C@@H](CCC(=O)O)C(=O)N[C@H](C(=O)NCC(=O)N[C@@H](CO)C(=O)NCC(=O)N[C@H](C(=O)N[C@@H](Cc1ccc(O)cc1)C(N)=O)[C@@H](C)O)[C@@H](C)O)[C@@H](C)O)[C@@H](C)O)C(C)C)[C@@H](C)O
B6: [N-terminal(C20 diacid-gGlu), 4Q, 9V, 15Q, 21Q, 23Y, 27G, 30S, 31G, 32T, 33Y]mimylin (peptide)
peptide: {C20 diacid-γGlu}-EASQLSTAVLGRLSQELHELQTYPRTGTGSGTY-NH2
SMILES: CC(C)C[C@H](NC(=O)[C@H](CCCNC(=N)N)NC(=O)CNC(=O)[C@H](CC(C)C)NC(=O)[C@@H](NC(=O)[C@H](C)NC(=O)[C@@H](NC(=O)[C@H](CO)NC(=O)[C@H](CC(C)C)NC(=O)[C@H](CCC(N)=O)NC(=O)[C@H](CO)NC(=O)[C@H](C)NC(=O)[C@H](CCC(=O)O)NC(=O)CC[C@H](NC(=O)CCCCCCCCCCCCCCCCCCC(=O)O)C(=O)O)[C@@H](C)O)C(C)C)C(=O)N[C@@H](CO)C(=O)N[C@@H](CCC(N)=O)C(=O)N[C@@H](CCC(=O)O)C(=O)N[C@@H](CC(C)C)C(=O)N[C@@H](Cc1c[nH]cn1)C(=O)N[C@@H](CCC(=O)O)C(=O)N[C@@H](CC(C)C)C(=O)N[C@@H](CCC(N)=O)C(=O)N[C@H](C(=O)N[C@@H](Cc1ccc(O)cc1)C(=O)N1CCC[C@H]1C(=O)N[C@@H](CCCNC(=N)N)C(=O)N[C@H](C(=O)NCC(=O)N[C@H](C(=O)NCC(=O)N[C@@H](CO)C(=O)NCC(=O)N[C@H](C(=O)N[C@@H](Cc1ccc(O)cc1)C(N)=O)[C@@H](C)O)[C@@H](C)O)[C@@H](C)O)[C@@H](C)O

This test has as its target T1, human amylin receptor (human calcitonin receptor + human RAMP3) (human). In words: whole-cell competition vs 125I-rat amylin (Assay Va).
With LSGLSTAVLGRLSQELHELQTYPRTETGSQTY-NH2 [[des1, 2L, 4G, 9V, 15Q, 21Q, 23Y, 30S, 31Q, 32T, 33Y]mimylin], the IC50 amounted to 1.18 nM.

Regarding EASELSTAALGRLSAELHELATLPRTETGPESP-OH [[C-terminal(-)]mimylin], the IC50 came out at 294 nM. Consider ASEVSTAVLGRLSAELHELATLPRTETGSGSP-NH2 [[des1, 5V, 9V, 30S, 31G]mimylin], for which the IC50 amounted to 0.982 nM. As to B1, the IC50 was determined as 0.431 nM. To {C20 diacid-γGlu}-ASGLSTATLGRLSQELHELQTYPRTETGSGTY-NH2 [[N-terminal(C20 diacid-gGlu), des1, 4G, 9T, 15Q, 21Q, 23Y, 30S, 31G, 32T, 33Y]mimylin] belongs 0.079 nM. Consider {C18 diacid}-EASELSTAALGRLSAELHELATLPRTETGPESP-OH [[N-terminal(C18 diacid), C-terminal(-)]mimylin], for which the half-maximal inhibitory concentration (IC50) was determined as 298 nM.

Take B2: the IC50 amounted to 2.56 nM. As to ASELSTAALGHLSAELHELATLPRTETGSGSP-NH2 [[des1, 12H, 30S, 31G]mimylin], the concentration for half-maximal inhibition (IC50) was 5.1 nM. On to ASELTTAVLGRLEAELHELTTLPRTETGTGTP-NH2 [[des1, 6T, 9V, 14E, 21T, 30T, 31G, 32T]mimylin], for which the IC50 was found to be 71.4 nM. On to B3, for which the half-maximal inhibitory concentration (IC50) is 0.244 nM. As to ASELTTAVLGRLSAELHELATLPRTETGTGTP-NH2 [[des1, 6T, 9V, 30T, 31G, 32T]mimylin], the IC50 stood at 20.2 nM. To B4 belongs 10.7 nM; to B5, 11.8 nM; to EASELSTAALGRLSAELHELATLPRTETGSGSP-NH2 [[30S, 31G]mimylin], 0.469 nM. Take B6: the IC50 came to 0.338 nM.
